Test results: the Human Domainome abundance scans (Beltran et al. 2025)
± gives the uncertainty stated by the source.

B1: KAT8 regulatory NSL complex subunit 2, residues 28 to 91; numbered along this chain, Q9H9L4 (parent)
chain: CAFTHRPCSHPRLEGQEFCIKHILEDKNAPFKQCSYISTKNGKRCPNAAPKPEKKDGVSFCAEH

Variants of: B1
Assay: abundance fitness (aPCA) (normalised: wild type 0, dead -1); higher = more abundant; growth selection in yeast, the domain comes from the species named
Conditions: Homo sapiens
CAFTHRPCSHPRLEGQEFCIKHILEDKNAPFKQCNYISTKNGKRCPNAAPKPEKKDGVSFCAEH [S35N] gave an abundance fitness of -0.117 ± 0.075.
Variant CAFTHRPCSHPRLEGQEFCIKHILEDKNAPFKQCPYISTKNGKRCPNAAPKPEKKDGVSFCAEH [S35P] has an abundance fitness of -0.177 ± 0.074.
Work on CAFTHRPCSHPRLEGQEFCIKHILEDKNAPFKQCQYISTKNGKRCPNAAPKPEKKDGVSFCAEH [S35Q] yielded an abundance fitness of -0.103 ± 0.098.
For CAFTHRPCSHPRLEGQEFCIKHILEDKNAPFKQCRYISTKNGKRCPNAAPKPEKKDGVSFCAEH [S35R], the abundance fitness was -0.105 ± 0.065.
Work on CAFTHRPCSHPRLEGQEFCIKHILEDKNAPFKQCTYISTKNGKRCPNAAPKPEKKDGVSFCAEH [S35T] yielded an abundance fitness of -0.104 ± 0.058.
With CAFTHRPCSHPRLEGQEFCIKHILEDKNAPFKQCVYISTKNGKRCPNAAPKPEKKDGVSFCAEH [S35V] the abundance fitness was -0.031 ± 0.053.
CAFTHRPCSHPRLEGQEFCIKHILEDKNAPFKQCWYISTKNGKRCPNAAPKPEKKDGVSFCAEH [S35W] showed an abundance fitness of -0.169 ± 0.1.
In the case of CAFTHRPCSHPRLEGQEFCIKHILEDKNAPFKQCYYISTKNGKRCPNAAPKPEKKDGVSFCAEH [S35Y], the abundance fitness is reported as -0.113 ± 0.1.
CAFTHRPCSHPRLEGQEFCIKHILEDKNAPFKQCSAISTKNGKRCPNAAPKPEKKDGVSFCAEH [Y36A] gave an abundance fitness of -0.096 ± 0.056.
For CAFTHRPCSHPRLEGQEFCIKHILEDKNAPFKQCSCISTKNGKRCPNAAPKPEKKDGVSFCAEH [Y36C], the abundance fitness was -0.173 ± 0.093.
Variant CAFTHRPCSHPRLEGQEFCIKHILEDKNAPFKQCSDISTKNGKRCPNAAPKPEKKDGVSFCAEH [Y36D] has an abundance fitness of -0.162 ± 0.084.
In the case of CAFTHRPCSHPRLEGQEFCIKHILEDKNAPFKQCSEISTKNGKRCPNAAPKPEKKDGVSFCAEH [Y36E], the abundance fitness is reported as -0.183 ± 0.093.
In the case of CAFTHRPCSHPRLEGQEFCIKHILEDKNAPFKQCSFISTKNGKRCPNAAPKPEKKDGVSFCAEH [Y36F], the abundance fitness is reported as -0.015 ± 0.08.
CAFTHRPCSHPRLEGQEFCIKHILEDKNAPFKQCSGISTKNGKRCPNAAPKPEKKDGVSFCAEH [Y36G] showed an abundance fitness of -0.085 ± 0.049.
Variant CAFTHRPCSHPRLEGQEFCIKHILEDKNAPFKQCSHISTKNGKRCPNAAPKPEKKDGVSFCAEH [Y36H] has an abundance fitness of -0.016 ± 0.089.
Work on CAFTHRPCSHPRLEGQEFCIKHILEDKNAPFKQCSIISTKNGKRCPNAAPKPEKKDGVSFCAEH [Y36I] yielded an abundance fitness of -0.131 ± 0.092.
CAFTHRPCSHPRLEGQEFCIKHILEDKNAPFKQCSKISTKNGKRCPNAAPKPEKKDGVSFCAEH [Y36K] gave an abundance fitness of -0.015 ± 0.069.
CAFTHRPCSHPRLEGQEFCIKHILEDKNAPFKQCSLISTKNGKRCPNAAPKPEKKDGVSFCAEH [Y36L] gave an abundance fitness of -0.156 ± 0.05.
CAFTHRPCSHPRLEGQEFCIKHILEDKNAPFKQCSMISTKNGKRCPNAAPKPEKKDGVSFCAEH [Y36M] showed an abundance fitness of -0.216 ± 0.069.
With CAFTHRPCSHPRLEGQEFCIKHILEDKNAPFKQCSNISTKNGKRCPNAAPKPEKKDGVSFCAEH [Y36N] the abundance fitness was -0.157 ± 0.13.
Variant CAFTHRPCSHPRLEGQEFCIKHILEDKNAPFKQCSPISTKNGKRCPNAAPKPEKKDGVSFCAEH [Y36P] has an abundance fitness of -0.298 ± 0.087.
CAFTHRPCSHPRLEGQEFCIKHILEDKNAPFKQCSQISTKNGKRCPNAAPKPEKKDGVSFCAEH [Y36Q] gave an abundance fitness of -0.078 ± 0.11.
For CAFTHRPCSHPRLEGQEFCIKHILEDKNAPFKQCSRISTKNGKRCPNAAPKPEKKDGVSFCAEH [Y36R], the abundance fitness was -0.055 ± 0.058.
CAFTHRPCSHPRLEGQEFCIKHILEDKNAPFKQCSSISTKNGKRCPNAAPKPEKKDGVSFCAEH [Y36S] showed an abundance fitness of -0.06 ± 0.056.
In the case of CAFTHRPCSHPRLEGQEFCIKHILEDKNAPFKQCSTISTKNGKRCPNAAPKPEKKDGVSFCAEH [Y36T], the abundance fitness is reported as -0.054 ± 0.066.
CAFTHRPCSHPRLEGQEFCIKHILEDKNAPFKQCSVISTKNGKRCPNAAPKPEKKDGVSFCAEH [Y36V] showed an abundance fitness of -0.129 ± 0.045.
CAFTHRPCSHPRLEGQEFCIKHILEDKNAPFKQCSWISTKNGKRCPNAAPKPEKKDGVSFCAEH [Y36W] showed an abundance fitness of -0.122 ± 0.069.
For CAFTHRPCSHPRLEGQEFCIKHILEDKNAPFKQCSYASTKNGKRCPNAAPKPEKKDGVSFCAEH [I37A], the abundance fitness was -0.177 ± 0.062.
In the case of CAFTHRPCSHPRLEGQEFCIKHILEDKNAPFKQCSYCSTKNGKRCPNAAPKPEKKDGVSFCAEH [I37C], the abundance fitness is reported as -0.032 ± 0.12.
CAFTHRPCSHPRLEGQEFCIKHILEDKNAPFKQCSYDSTKNGKRCPNAAPKPEKKDGVSFCAEH [I37D] gave an abundance fitness of -0.302 ± 0.15.
CAFTHRPCSHPRLEGQEFCIKHILEDKNAPFKQCSYESTKNGKRCPNAAPKPEKKDGVSFCAEH [I37E] showed an abundance fitness of -0.042 ± 0.095.
Variant CAFTHRPCSHPRLEGQEFCIKHILEDKNAPFKQCSYGSTKNGKRCPNAAPKPEKKDGVSFCAEH [I37G] has an abundance fitness of -0.022 ± 0.04.
CAFTHRPCSHPRLEGQEFCIKHILEDKNAPFKQCSYHSTKNGKRCPNAAPKPEKKDGVSFCAEH [I37H] showed an abundance fitness of 0.039 ± 0.15.
CAFTHRPCSHPRLEGQEFCIKHILEDKNAPFKQCSYKSTKNGKRCPNAAPKPEKKDGVSFCAEH [I37K] showed an abundance fitness of -0.107 ± 0.1.
In the case of CAFTHRPCSHPRLEGQEFCIKHILEDKNAPFKQCSYLSTKNGKRCPNAAPKPEKKDGVSFCAEH [I37L], the abundance fitness is reported as -0.044 ± 0.047.
CAFTHRPCSHPRLEGQEFCIKHILEDKNAPFKQCSYMSTKNGKRCPNAAPKPEKKDGVSFCAEH [I37M] showed an abundance fitness of 0.046 ± 0.092.
For CAFTHRPCSHPRLEGQEFCIKHILEDKNAPFKQCSYNSTKNGKRCPNAAPKPEKKDGVSFCAEH [I37N], the abundance fitness was -0.042 ± 0.13.
CAFTHRPCSHPRLEGQEFCIKHILEDKNAPFKQCSYPSTKNGKRCPNAAPKPEKKDGVSFCAEH [I37P] showed an abundance fitness of -0.142 ± 0.079.
For CAFTHRPCSHPRLEGQEFCIKHILEDKNAPFKQCSYQSTKNGKRCPNAAPKPEKKDGVSFCAEH [I37Q], the abundance fitness was -0.031 ± 0.12.
CAFTHRPCSHPRLEGQEFCIKHILEDKNAPFKQCSYRSTKNGKRCPNAAPKPEKKDGVSFCAEH [I37R] gave an abundance fitness of -0.045 ± 0.045.
In the case of CAFTHRPCSHPRLEGQEFCIKHILEDKNAPFKQCSYSSTKNGKRCPNAAPKPEKKDGVSFCAEH [I37S], the abundance fitness is reported as -0.061 ± 0.062.
In the case of CAFTHRPCSHPRLEGQEFCIKHILEDKNAPFKQCSYTSTKNGKRCPNAAPKPEKKDGVSFCAEH [I37T], the abundance fitness is reported as 0.038 ± 0.069.
